# Where a chain is given by its changes, count along the chain named. Names may count otherwise.
# T1: EBOV GP on rVSV particles (Ebola virus (EBOV), UniProt Q05320 33-676)
# T1 sequence: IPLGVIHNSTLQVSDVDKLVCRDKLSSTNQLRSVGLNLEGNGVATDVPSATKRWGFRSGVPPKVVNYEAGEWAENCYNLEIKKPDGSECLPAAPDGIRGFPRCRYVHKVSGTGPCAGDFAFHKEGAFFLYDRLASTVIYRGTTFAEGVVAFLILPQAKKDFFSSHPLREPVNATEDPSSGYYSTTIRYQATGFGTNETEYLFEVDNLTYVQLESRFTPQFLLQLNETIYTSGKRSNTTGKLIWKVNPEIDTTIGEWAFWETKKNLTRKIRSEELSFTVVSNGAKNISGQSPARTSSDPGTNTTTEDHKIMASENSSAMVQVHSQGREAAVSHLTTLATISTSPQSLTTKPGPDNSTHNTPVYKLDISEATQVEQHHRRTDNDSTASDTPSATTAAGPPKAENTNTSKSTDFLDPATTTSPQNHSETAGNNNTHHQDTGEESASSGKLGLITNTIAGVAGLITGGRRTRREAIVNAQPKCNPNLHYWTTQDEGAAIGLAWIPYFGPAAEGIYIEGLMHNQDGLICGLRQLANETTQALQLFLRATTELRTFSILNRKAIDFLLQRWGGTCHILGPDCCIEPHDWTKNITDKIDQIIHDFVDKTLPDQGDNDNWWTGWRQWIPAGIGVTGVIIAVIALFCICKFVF
# T2: SUDV GP on rVSV particles (Sudan virus (SUDV), UniProt Q66814 33-676)
# T2 sequence: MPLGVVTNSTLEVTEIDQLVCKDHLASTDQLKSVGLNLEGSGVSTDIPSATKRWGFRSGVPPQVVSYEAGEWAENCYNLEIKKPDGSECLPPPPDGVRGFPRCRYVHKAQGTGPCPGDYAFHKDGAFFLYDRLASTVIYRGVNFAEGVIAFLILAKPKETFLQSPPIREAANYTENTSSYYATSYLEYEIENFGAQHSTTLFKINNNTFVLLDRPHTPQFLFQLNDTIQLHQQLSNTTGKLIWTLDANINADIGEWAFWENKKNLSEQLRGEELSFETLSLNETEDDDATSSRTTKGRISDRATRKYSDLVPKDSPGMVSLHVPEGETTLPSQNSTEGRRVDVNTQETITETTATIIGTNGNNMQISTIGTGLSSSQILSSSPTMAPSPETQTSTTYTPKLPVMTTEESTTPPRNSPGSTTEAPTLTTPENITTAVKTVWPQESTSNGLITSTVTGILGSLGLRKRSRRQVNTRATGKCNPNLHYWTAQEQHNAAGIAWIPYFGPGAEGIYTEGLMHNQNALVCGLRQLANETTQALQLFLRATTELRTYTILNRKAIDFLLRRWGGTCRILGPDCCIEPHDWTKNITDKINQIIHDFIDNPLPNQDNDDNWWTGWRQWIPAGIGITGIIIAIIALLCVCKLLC
# T3: RESTV GP on rVSV particles (Reston virus (RESTV), UniProt Q66799 34-677)
# T3 sequence: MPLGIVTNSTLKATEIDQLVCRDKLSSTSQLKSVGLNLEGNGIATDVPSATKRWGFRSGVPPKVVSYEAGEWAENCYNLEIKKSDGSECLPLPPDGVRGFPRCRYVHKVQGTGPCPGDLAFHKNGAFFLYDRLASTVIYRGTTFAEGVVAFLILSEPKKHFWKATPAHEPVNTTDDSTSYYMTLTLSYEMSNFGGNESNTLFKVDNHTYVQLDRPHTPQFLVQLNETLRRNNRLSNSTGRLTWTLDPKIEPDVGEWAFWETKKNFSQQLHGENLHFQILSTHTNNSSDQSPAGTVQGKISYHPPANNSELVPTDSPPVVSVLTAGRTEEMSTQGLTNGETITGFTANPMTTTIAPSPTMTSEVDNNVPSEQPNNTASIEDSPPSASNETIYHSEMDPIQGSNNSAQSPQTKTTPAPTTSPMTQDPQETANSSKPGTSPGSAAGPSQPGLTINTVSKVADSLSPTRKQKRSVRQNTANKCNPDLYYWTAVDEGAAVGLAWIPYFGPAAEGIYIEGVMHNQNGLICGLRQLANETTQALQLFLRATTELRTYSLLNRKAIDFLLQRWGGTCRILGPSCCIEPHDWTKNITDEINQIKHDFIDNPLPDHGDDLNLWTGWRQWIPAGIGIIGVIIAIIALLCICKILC
# T4: TAFV GP on VSV pseudotype particles (Tai Forest virus (TAFV), UniProt Q66810 33-676)
# T4 sequence: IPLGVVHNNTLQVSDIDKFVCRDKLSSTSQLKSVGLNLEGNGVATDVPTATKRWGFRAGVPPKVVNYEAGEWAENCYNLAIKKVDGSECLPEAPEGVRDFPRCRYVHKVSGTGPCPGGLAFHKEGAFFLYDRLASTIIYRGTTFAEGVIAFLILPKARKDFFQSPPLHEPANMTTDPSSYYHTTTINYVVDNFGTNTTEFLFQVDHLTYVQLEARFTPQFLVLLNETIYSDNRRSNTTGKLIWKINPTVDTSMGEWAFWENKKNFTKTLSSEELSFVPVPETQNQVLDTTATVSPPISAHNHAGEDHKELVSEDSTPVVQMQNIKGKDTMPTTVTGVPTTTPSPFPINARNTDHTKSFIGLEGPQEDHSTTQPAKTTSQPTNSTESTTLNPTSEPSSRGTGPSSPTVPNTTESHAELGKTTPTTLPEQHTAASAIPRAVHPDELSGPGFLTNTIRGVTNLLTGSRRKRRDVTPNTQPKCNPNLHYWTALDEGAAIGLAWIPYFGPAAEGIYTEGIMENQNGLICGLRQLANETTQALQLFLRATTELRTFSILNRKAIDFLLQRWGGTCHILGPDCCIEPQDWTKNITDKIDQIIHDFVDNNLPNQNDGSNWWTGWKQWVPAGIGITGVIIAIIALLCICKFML
# B1: PE-87 D99A (antibody, V domains shown)
# VH: QVQLVQSGVTLVQPGGSLRVSCAASGFTFSSYAMSWVRQAPGKGLEWVSAISGLGGSTYYADSVKGRFTISRDNSKNTLYLQMNSLRAEDTAVYYCAKAHRVWAAGYHFDYWGQGALVTVSS
# VL: DIVLTQSPSTLSASVGDRVTITCRASQSISSWLAWYQQKPGEAPKLLISDASSLESGVPSRFSGSGSGTEFTLTISSLQPDDFATYYCQQYYSSPTFGGGTKVEIK
# B2: PE-87 R101A (antibody, V domains shown)
# VH: B1 VH with A99D, R101A
# VL: B1 VL
# B3: PE-87 V102A (antibody, V domains shown)
# VH: B1 VH with A99D, V102A
# VL: B1 VL
# B4: PE-87 F109A (antibody, V domains shown)
# VH: B1 VH with A99D, F109A
# VL: B1 VL
# B5: PE-87 Y107A (antibody, V domains shown)
# VH: B1 VH with A99D, Y107A
# VL: B1 VL
# B6: PE-87 G106A (antibody, V domains shown)
# VH: B1 VH with A99D, G106A
# VL: B1 VL
# B7: PE-87 D110A (antibody, V domains shown)
# VH: B1 VH with A99D, D110A
# VL: B1 VL
# B8: PE-87 H108A (antibody, V domains shown)
# VH: B1 VH with A99D, H108A
# VL: B1 VL
# B9: PE-87 Y111A (antibody, V domains shown)
# VH: B1 VH with A99D, Y111A
# VL: B1 VL
# B10: PE-87 H100A (antibody, V domains shown)
# VH: B1 VH with A99D, H100A
# VL: B1 VL
# B11: PE-87 W103A (antibody, V domains shown)
# VH: B1 VH with A99D, W103A
# VL: B1 VL
# Biological target: T1, EBOV GP on rVSV particles
# Test: cell-based or functional assay
row,Binder,"IC50 (nM), neutralization of rVSV-GP [nM]"
1,B1,> 500
2,B2,3.2
3,B3,0.6
4,B4,4.2
5,B5,3
6,B6,0.8
7,B7,2
8,B8,3.2
9,B9,0.8
10,B10,1

# Biological target: T2, SUDV GP on rVSV particles
# Test: cell-based or functional assay
row,Binder,"IC50 (nM), neutralization of rVSV-GP [nM]"
1,B2,1.5
2,B3,1.1
3,B4,2.1
4,B5,> 350
5,B6,0.9
6,B7,1.5
7,B8,2.1
8,B9,0.8
9,B10,1

# Biological target: BDBV GP on rVSV particles (Bundibugyo virus (BDBV))
# Test: cell-based or functional assay
row,Binder,"IC50 (nM), neutralization of rVSV-GP [nM]"
1,B2,0.4
2,B3,0.2
3,B4,0.3
4,B5,0.8
5,B6,0.4
6,B7,0.9
7,B11,> 200
8,B8,0.6
9,B9,0.4
10,B10,0.4

# Biological target: T3, RESTV GP on rVSV particles
# Test: cell-based or functional assay
row,Binder,"IC50 (nM), neutralization of rVSV-GP [nM]"
1,B2,0.2
2,B3,0.2
3,B4,0.4
4,B5,1.3
5,B6,0.2
6,B7,0.4
7,B8,0.5
8,B9,0.1
9,B10,0.2

# Biological target: T4, TAFV GP on VSV pseudotype particles
# Test: cell-based or functional assay
row,Binder,"IC50 (nM), neutralization of rVSV-GP [nM]"
1,B1,> 350
2,B2,1.9
3,B3,1
4,B4,2.8
5,B5,0.8
6,B6,0.8
7,B7,2.1
8,B11,> 150
9,B8,2.2
10,B9,1.1
11,B10,0.8

# — US20180244758A1 (MAPP BIOPHARMACEUTICAL, published 2018)
